In PMC10440015:
“And” between values parts separate entries of the source, which are not always exact repeats. Equal values may be shown once.

Legend:
KFNHWFG-Toyopearl resin [1] = assay: batch adsorption isotherm
GYISRHPG-Toyopearl resin = assay: affinity chromatography
WKAHNKG-Toyopearl resin = assay: affinity chromatography
FFNFFKG-Toyopearl resin [2] = assay: affinity chromatography
[3] = target: the peptide-based adsorbents; assay: affinity chromatography
FNHFFIG-Toyopearl resin = assay: affinity chromatography
WWIKISG-Toyopearl resin = assay: affinity chromatography
…-Toyopearl resin = assay: affinity chromatography
KFNHWFG-Toyopearl resin [4] = assay: affinity chromatography
KWWIWAG-Toyopearl resin = assay: affinity chromatography
FFNFFKG-Toyopearl resin [5] = assay: breakthrough chromatography
KFNHWFG-Toyopearl resin [6] = assay: breakthrough chromatography

| Substance | Kd (KFNHWFG-Toyopearl resin [1]) | loss (AAV titer in flow-through and wash vs. load) (GYISRHPG-Toyopearl resin) | loss (AAV titer in flow-through and wash vs. load) (WKAHNKG-Toyopearl resin) | yield (AAV titer in elution fraction vs. load) (WKAHNKG-Toyopearl resin) | loss (AAV titer in flow-through and wash vs. load) (FFNFFKG-Toyopearl resin [2]) | loss (AAV titer in flow-through and wash vs. load) [3] | yield (AAV titer in elution fraction vs. load) [3] | loss (AAV titer in flow-through and wash vs. load) (FNHFFIG-Toyopearl resin) | loss (AAV titer in flow-through and wash vs. load) (WWIKISG-Toyopearl resin) | loss (AAV titer in flow-through and wash vs. load) (…-Toyopearl resin) | yield (AAV titer in elution fraction vs. load) (…-Toyopearl resin) | loss (AAV titer in flow-through and wash vs. load) (KFNHWFG-Toyopearl resin [4]) | yield (AAV titer in elution fraction vs. load) (KFNHWFG-Toyopearl resin [4]) | loss (AAV titer in flow-through and wash vs. load) (KWWIWAG-Toyopearl resin) | DBC10% (dynamic binding capacity at 10% breakthrough) (vp AAV per mL of resin) (FFNFFKG-Toyopearl resin [5]) | DBC10% (dynamic binding capacity at 10% breakthrough) (vp AAV per mL of resin) (KFNHWFG-Toyopearl resin [6]) | yield (AAV titer in elution fraction vs. load) (FFNFFKG-Toyopearl resin [2]) | yield (AAV titer in elution fraction vs. load) (KWWIWAG-Toyopearl resin) |
| --- | --- | --- | --- | --- | --- | --- | --- | --- | --- | --- | --- | --- | --- | --- | --- | --- | --- | --- |
| Adeno-associated virus serotype 2 capsid (complex) | 0.16 pM | < 1.7% | < 1.7% | 79.8% | < 1.7% | 1 to 4% | 40 to 65% | < 1.7% | < 1.7% | < 1.7% | 54.9% and 44.8% | < 1.7% | 45% | < 1.7% | 1.4e+13 | 1.33e+13 |  |  |
| Adeno-associated virus serotype 9 capsid (complex) |  |  |  |  |  |  |  |  |  |  | 61.7% and 43.9% and 53.7% |  |  |  |  |  | 72.4% | 57.2% |
